{"source": "paper PMC11711316", "about": "(Nature Communications, 2025)", "binders": {"B1": {"name": "Rab3GAP1 (human, full length, N-terminal TSP tag) (natural protein, UniProt Q15042 1-981, looked up)", "chain": "MAADSEPESEVFEITDFTTASEWERFISKVEEVLNDWKLIGNSLGKPLEKGIFTSGTWEEKSDEISFADFKFSVTHHYLVQESTDKEGKDELLEDVVPQSMQDLLGMNNDFPPRAHCLVRWYGLREFVVIAPAAHSDAVLSESKCNLLLSSVSIALGNTGCQVPLFVQIHHKWRRMYVGECQGPGVRTDFEMVHLRKVPNQYTHLSGLLDIFKSKIGCPLTPLPPVSIAIRFTYVLQDWQQYFWPQQPPDIDALVGGEVGGLEFGKLPFGACEDPISELHLATTWPHLTEGIIVDNDVYSDLDPIQAPHWSVRVRKAENPQCLLGDFVTEFFKICRRKESTDEILGRSAFEEEGKETADITHALSKLTEPASVPIHKLSVSNMVHTAKKKIRKHRGVEESPLNNDVLNTILLFLFPDAVSEKPLDGTTSTDNNNPPSESEDYNLYNQFKSAPSDSLTYKLALCLCMINFYHGGLKGVAHLWQEFVLEMRFRWENNFLIPGLASGPPDLRCCLLHQKLQMLNCCIERKKARDEGKKTSASDVTNIYPGDAGKAGDQLVPDNLKETDKEKGEVGKSWDSWSDSEEEFFECLSDTEELKGNGQESGKKGGPKEMANLRPEGRLYQHGKLTLLHNGEPLYIPVTQEPAPMTEDLLEEQSEVLAKLGTSAEGAHLRARMQSACLLSDMESFKAANPGCSLEDFVRWYSPRDYIEEEVIDEKGNVVLKGELSARMKIPSNMWVEAWETAKPIPARRQRRLFDDTREAEKVLHYLAIQKPADLARHLLPCVIHAAVLKVKEEESLENISSVKKIIKQIISHSSKVLHFPNPEDKKLEEIIHQITNVEALIARARSLKAKFGTEKCEQEEEKEDLERFVSCLLEQPEVLVTGAGRGHAGRIIHKLFVNAQRAAAMTPPEEELKRMGSPEERRQNSVSDFPPPAGREFILRTTVPRPAPYSKALPQRMYSVLTKEDFRLAGAFSSDTSFF"}}, "key": {"[1]": {"biological_target": "T1, Rab3GAP2 (human, full length, C-terminal 3x-FLAG) (human, UniProt Q9H2M9 1-1393)", "T1 sequence (looked up)": "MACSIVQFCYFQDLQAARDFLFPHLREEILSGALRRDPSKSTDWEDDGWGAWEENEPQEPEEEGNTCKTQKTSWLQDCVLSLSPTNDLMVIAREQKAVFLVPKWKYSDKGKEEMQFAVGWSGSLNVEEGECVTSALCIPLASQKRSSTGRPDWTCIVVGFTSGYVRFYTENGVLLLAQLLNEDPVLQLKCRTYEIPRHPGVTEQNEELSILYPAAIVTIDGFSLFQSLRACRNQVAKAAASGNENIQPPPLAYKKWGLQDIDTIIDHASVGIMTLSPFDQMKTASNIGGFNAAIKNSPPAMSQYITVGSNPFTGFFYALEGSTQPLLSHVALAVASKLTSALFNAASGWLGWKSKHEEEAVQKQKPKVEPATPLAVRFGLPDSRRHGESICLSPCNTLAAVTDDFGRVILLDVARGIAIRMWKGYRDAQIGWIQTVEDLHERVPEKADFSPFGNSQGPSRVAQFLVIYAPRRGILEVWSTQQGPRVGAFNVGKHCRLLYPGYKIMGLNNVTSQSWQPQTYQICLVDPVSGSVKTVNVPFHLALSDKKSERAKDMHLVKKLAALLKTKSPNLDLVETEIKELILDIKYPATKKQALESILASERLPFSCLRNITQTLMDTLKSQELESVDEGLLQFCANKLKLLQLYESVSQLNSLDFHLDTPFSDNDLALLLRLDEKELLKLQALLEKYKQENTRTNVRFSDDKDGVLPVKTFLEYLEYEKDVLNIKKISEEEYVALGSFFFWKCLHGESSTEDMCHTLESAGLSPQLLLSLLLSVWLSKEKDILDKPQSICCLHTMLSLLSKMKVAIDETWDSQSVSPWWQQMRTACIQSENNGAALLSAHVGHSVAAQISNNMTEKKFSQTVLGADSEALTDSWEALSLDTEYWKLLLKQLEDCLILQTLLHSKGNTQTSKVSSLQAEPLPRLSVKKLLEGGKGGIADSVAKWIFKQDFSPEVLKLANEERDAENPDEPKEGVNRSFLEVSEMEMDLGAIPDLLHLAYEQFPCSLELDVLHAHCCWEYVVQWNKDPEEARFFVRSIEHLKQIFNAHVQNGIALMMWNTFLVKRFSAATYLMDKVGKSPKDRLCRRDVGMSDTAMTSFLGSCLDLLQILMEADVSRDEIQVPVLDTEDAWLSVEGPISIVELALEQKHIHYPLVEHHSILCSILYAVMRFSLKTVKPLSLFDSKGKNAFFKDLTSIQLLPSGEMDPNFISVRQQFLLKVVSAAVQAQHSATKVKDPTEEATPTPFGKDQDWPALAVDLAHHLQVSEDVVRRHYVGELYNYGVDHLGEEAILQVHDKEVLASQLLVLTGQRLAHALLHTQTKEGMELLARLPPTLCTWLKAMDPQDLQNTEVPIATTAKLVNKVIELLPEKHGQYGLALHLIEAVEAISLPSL", "test": "SEC"}, "[2]": {"biological_target": "T2, Rab3GAP2N (N-terminal domain of Rab3GAP2, 1-544) (human, UniProt Q9H2M9 1-544)", "T2 sequence (looked up)": "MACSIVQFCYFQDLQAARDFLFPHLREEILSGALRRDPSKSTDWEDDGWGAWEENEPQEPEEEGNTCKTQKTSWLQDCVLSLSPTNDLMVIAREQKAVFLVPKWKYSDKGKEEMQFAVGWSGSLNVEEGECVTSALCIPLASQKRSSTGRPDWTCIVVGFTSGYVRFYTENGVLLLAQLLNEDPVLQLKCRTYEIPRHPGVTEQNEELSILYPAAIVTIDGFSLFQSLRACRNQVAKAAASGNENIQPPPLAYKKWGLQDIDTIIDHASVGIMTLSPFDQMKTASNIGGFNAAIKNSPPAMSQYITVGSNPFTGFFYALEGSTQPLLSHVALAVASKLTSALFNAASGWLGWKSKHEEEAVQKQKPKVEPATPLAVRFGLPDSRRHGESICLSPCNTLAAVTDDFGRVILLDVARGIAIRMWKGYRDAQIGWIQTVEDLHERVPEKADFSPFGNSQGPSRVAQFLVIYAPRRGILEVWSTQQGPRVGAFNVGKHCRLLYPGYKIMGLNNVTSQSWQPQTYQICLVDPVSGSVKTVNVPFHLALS", "test": "SEC"}}}
{"binder": "B1", "values": [{"measurement": "stoichiometry N", "setting": "[1]", "result": 1}, {"measurement": "stoichiometry N", "setting": "[2]", "result": 1}]}
